# Assay results as given in patent publication US10793871B2, “Nucleic acid molecule encoding glei protein variant with increased phytic acid sensitivity and use thereof” (University-Industry Foundation, Yonsei University, priority 2015, dated 2020).
# T1: LOS4 RNA helicase activity (Arabidopsis thaliana, UniProt Q93ZG7)
# T1 construct: LOS4 was cloned into a pET-29a vector for His fusion; made in house; host or cells: Escherichia coli Rosetta (DE3) for LOS4-His; BL21 (DE3) for MBP-Gle1
# T1 sequence (Q93ZG7 1-496): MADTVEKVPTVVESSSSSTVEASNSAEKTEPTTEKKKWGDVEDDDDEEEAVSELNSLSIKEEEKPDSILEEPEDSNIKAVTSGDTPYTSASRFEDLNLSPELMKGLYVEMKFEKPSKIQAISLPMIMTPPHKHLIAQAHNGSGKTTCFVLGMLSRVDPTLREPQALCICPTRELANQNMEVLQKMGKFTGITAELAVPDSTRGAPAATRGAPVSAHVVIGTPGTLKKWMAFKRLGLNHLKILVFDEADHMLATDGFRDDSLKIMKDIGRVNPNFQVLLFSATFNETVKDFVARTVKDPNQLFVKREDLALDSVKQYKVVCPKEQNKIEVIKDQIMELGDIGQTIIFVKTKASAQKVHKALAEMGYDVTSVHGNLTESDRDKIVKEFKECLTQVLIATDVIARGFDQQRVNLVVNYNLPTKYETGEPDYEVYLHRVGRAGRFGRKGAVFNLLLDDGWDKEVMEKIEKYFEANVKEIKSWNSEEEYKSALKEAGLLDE
# T2: LOS4-His (Arabidopsis thaliana, UniProt Q93ZG7)
# T2 construct: LOS4 was cloned into a pET-29a vector for His fusion; made in house; host or cells: Escherichia coli Rosetta (DE3) for LOS4-His; BL21 (DE3) for MBP-Gle1
# T2 sequence (Q93ZG7 1-496): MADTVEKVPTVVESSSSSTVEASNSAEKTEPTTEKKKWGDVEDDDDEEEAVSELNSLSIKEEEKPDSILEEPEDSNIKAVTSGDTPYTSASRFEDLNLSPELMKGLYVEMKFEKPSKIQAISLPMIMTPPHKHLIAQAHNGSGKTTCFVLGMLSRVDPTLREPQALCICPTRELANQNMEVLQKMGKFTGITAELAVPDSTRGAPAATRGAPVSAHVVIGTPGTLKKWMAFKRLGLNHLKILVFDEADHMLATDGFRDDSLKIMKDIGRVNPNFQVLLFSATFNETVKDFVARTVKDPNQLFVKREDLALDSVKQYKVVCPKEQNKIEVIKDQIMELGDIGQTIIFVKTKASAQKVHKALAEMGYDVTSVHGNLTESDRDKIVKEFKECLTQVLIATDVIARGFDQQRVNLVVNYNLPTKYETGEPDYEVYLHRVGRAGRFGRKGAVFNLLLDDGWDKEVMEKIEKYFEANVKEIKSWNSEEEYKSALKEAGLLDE
# Legend:
# LOS4 ATPase = assay: Steady-state ATPase assay of LOS4-His; type: biochemical, Arabidopsis thaliana; details: for stimulation of LOS4 ATPase activity in the absence of InsP6: 1 μM LOS4-His, 2 mM ATP, 2 μM MBP-Gle1C or variant
# Method: A steady-state ATPase assay was performed as described by Alcázar-Román et al. (Inositol hexakisphosphate and Gle1 activate the DEAD-box protein Dbp5 for nuclear mRNA export. Nat. Cell Biol. 8: 711-716, 2006) with slight modifications. The ATPase assay was performed with a LOS4-His protein in a 96-well plate using a buffer containing 20 mM HEPES (pH 7.5), 150 mM NaCl, 3 mM MgCl2, 1 mM DTT, 2 mM ATP, 6 mM phosphoenolpyruvate, 1.2 mM NADH, 1 mg/ml BSA and 2% (v/v) pyruvate kinase/lactate dihydrogenase (Sigma-Aldrich) in a total volume of 100 μl. Polyadenylic acid was added at 50 μg/ml or different concentrations as described above. Absorbance at 340 nm was measured using a VersaMax absorbance microplate reader (Molecular Devices), and the data were analyzed using SoftMax Pro software (Molecular Devices).
# Gle1 and Gle1C (aa residues 244-611) were cloned into a pMAL C2X vector (New England Biolabs) for MBP fusion, LOS4 was cloned into a pET-29a vector for His fusion. MBP-Gle1 and MBP-Gle1C proteins were expressed in a BL21 (DE3) strain, and LOS4-His proteins were expressed in a Rosseta (DE3) strain of Escherichia coli. Cells were grown at 37° C. to an A600 of 0.4, shifted to 16° C., and induced by 0.25 mM IPTG for 16 hours. The MBP- and His-fusion proteins were purified following the manufacturer's introductions using MBP Excellose (Bioprogen) and His60 Ni Superflow™ resin (Clontech), respectively.
# [1] = molecular target: 6x-histidine-fused LOS4 (LOS4-His) (Arabidopsis) (UniProt Q93ZG7)
# [2] = molecular target: 6x-histidine-fused LOS4 (LOS4-His) (Arabidopsis) (UniProt Q93ZG7); remark: listed apart in the source
# [3] = molecular target: T1, LOS4 RNA helicase activity; assay: In vitro nucleic acid-melting assay with hairpin-shaped molecular beacons; type: biochemical; details: in the presence of ATP; LOS4-His:MBP-Gle1 1:1, 1:2, 1:4 or LOS4-His only
# Method: A nucleic acid-melting assay was performed as described by Kim et al. (Cold shock domain proteins and glycine-rich RNA-binding proteins from Arabidopsis thaliana can promote the cold adaptation process in Escherichia coli. Nucleic Acids Res. 35: 506-516, 2007) using 78-nucleotide-long, 9-bp-containing, hairpin-shaped molecular beacons conjugated with a fluorophore (tetramethylrhodamine) and a quencher (Dabcyl). Spectrofluorometry was performed using a fluorescence spectrophotometer (Hitachi F-2000) at an excitation wavelength of 555 nm and an emission wavelength of 575 nm.
# LOS4-His = molecular target: T2, LOS4-His; assay: In vitro pull-down assay; type: binding; details: Coomassie blue staining of eluted proteins
# Method: MBP and MBP-Gle1 proteins immobilized on MBP Excellose (Bioprogen) were incubated with LOS4-His proteins for 2 hours at room temperature. Similarly, LOS4-His proteins immobilized on a His60 Ni Superflow™ resin (Clontech) were incubated with MBP or MBP-Gle1 for 2 hours at room temperature. After extensive washing of the resins, the bound proteins were eluted with 2× SDS sample buffer, and the eluted proteins were visualized by Coomassie blue staining.
molecule,measurement,setting,value
"polyadenylic acid [RNA, reference compound]",LOS4 ATPase activity,"LOS4 ATPase; LOS4-His 1 μM, ATP 2 mM, RNA 50 μg/ml only",moderately stimulated LOS4 ATPase activity
MBP fusion protein of the carboxyl-terminal domain of Gle1 (MBP-Gle1C; amino acid residues 244-611),apparent kcat of LOS4-His ATPase,[1],0.565 s⁻¹
MBP-Gle1C (ID),LOS4 ATPase activity in the absence of InsP6 (fold decrease),[2],2
"O=S(=O)(O)OC1C(OS(=O)(=O)O)C(OS(=O)(=O)O)C(OS(=O)(=O)O)C(OS(=O)(=O)O)C1OS(=O)(=O)O (centres unmarked) [InsP6 analog, reference compound]",further stimulation of LOS4 ATPase activity,"LOS4 ATPase; LOS4-His 1 μM, ATP 2 mM, RNA, MBP-Gle1 2 μM plus 10 μM InsP6 analog",did not do so
MBP-Gle1C (IS1): MBP fusion of Arabidopsis Gle1C variant InsP6-Sensitive 1: mutation from A437 to K (protein) QEKARAEAQMLAKIRAEEEKKEVERKAAREVAEKEVADRKAAEQKLAEQKAVIESVTGSSATSNAQAGGNSIRAAESALILENHRLKKLEELETTNQSLKSRSNENFSSFEKHIGRVIRQISGTKDSVSGKINDIVKIFKDPRCPVSISIAAFAKKMVTTKEKPNPFACSYVIVYINSQFPQVMDILLAEFHKKCIYTVPKHIVNSQSAWDSDAYERLDSIMRLYGALVQTDIRVGNATNVHGIEHGWAWLARFLNKIPANRATATALNSFLQTAGFGLHQRYKSQFLKVVNVVREHFLQKLRAKKDTSDLLVIIAEITAYLDDRMYLKEPEGRAMKTTSTLSSELTAELNQPNYNQNYQRNDYRNYY,stimulation of LOS4 ATPase activity in the absence of InsP6,"LOS4 ATPase; RNA, no InsP6",activated LOS4 ATPase activity to similar degrees
same,InsP6 concentration at which LOS4-stimulating activity increases above basal,"LOS4 ATPase; with RNA, InsP6 0-100 μM",100 nM
same,InsP6 concentration giving maximum LOS4-stimulating activity,"LOS4 ATPase; with RNA, InsP6 0-100 μM",~1 µM
MBP-Gle1C (ID): MBP fusion of Arabidopsis Gle1C variant InsP6-Dead: mutation from K436 to A (protein) QEKARAEAQMLAKIRAEEEKKEVERKAAREVAEKEVADRKAAEQKLAEQKAVIESVTGSSATSNAQAGGNSIRAAESALILENHRLKKLEELETTNQSLKSRSNENFSSFEKHIGRVIRQISGTKDSVSGKINDIVKIFKDPRCPVSISIAAFAKKMVTTKEKPNPFACSYVIVYINSQFPQVMDILLAEFHAACIYTVPKHIVNSQSAWDSDAYERLDSIMRLYGALVQTDIRVGNATNVHGIEHGWAWLARFLNKIPANRATATALNSFLQTAGFGLHQRYKSQFLKVVNVVREHFLQKLRAKKDTSDLLVIIAEITAYLDDRMYLKEPEGRAMKTTSTLSSELTAELNQPNYNQNYQRNDYRNYY,stimulation of LOS4 ATPase activity in the absence of InsP6,"LOS4 ATPase; RNA, no InsP6",reduced abilities to stimulate LOS4
same,decrease in LOS4-stimulating activity in the absence of InsP6,"LOS4 ATPase; K436A mutation vs MBP-Gle1C, no InsP6",> 2 fold
MBP-Gle1C (IS2): MBP fusion of Arabidopsis Gle1C variant InsP6-Sensitive 2: double mutations from E433 to K and from A437 to K (protein) QEKARAEAQMLAKIRAEEEKKEVERKAAREVAEKEVADRKAAEQKLAEQKAVIESVTGSSATSNAQAGGNSIRAAESALILENHRLKKLEELETTNQSLKSRSNENFSSFEKHIGRVIRQISGTKDSVSGKINDIVKIFKDPRCPVSISIAAFAKKMVTTKEKPNPFACSYVIVYINSQFPQVMDILLAKFHKKCIYTVPKHIVNSQSAWDSDAYERLDSIMRLYGALVQTDIRVGNATNVHGIEHGWAWLARFLNKIPANRATATALNSFLQTAGFGLHQRYKSQFLKVVNVVREHFLQKLRAKKDTSDLLVIIAEITAYLDDRMYLKEPEGRAMKTTSTLSSELTAELNQPNYNQNYQRNDYRNYY,stimulation of LOS4 ATPase activity in the absence of InsP6,"LOS4 ATPase; RNA, no InsP6",reduced abilities to stimulate LOS4
same,InsP6 concentration at which LOS4-stimulating activity increases above basal,"LOS4 ATPase; with RNA, InsP6 0-100 μM",1 nM
same,InsP6 concentration giving full stimulation of LOS4 ATPase activity,"LOS4 ATPase; with RNA, InsP6 0-100 μM",100 nM
"LOS4-His: 6×-histidine-fused LOS4, Arabidopsis DEAD-box ATPase/RNA helicase, homolog of yeast Dbp5 (protein) MADTVEKVPTVVESSSSSTVEASNSAEKTEPTTEKKKWGDVEDDDDEEEAVSELNSLSIKEEEKPDSILEEPEDSNIKAVTSGDTPYTSASRFEDLNLSPELMKGLYVEMKFEKPSKIQAISLPMIMTPPHKHLIAQAHNGSGKTTCFVLGMLSRVDPTLREPQALCICPTRELANQNMEVLQKMGKFTGITAELAVPDSTRGAPAATRGAPVSAHVVIGTPGTLKKWMAFKRLGLNHLKILVFDEADHMLATDGFRDDSLKIMKDIGRVNPNFQVLLFSATFNETVKDFVARTVKDPNQLFVKREDLALDSVKQYKVVCPKEQNKIEVIKDQIMELGDIGQTIIFVKTKASAQKVHKALAEMGYDVTSVHGNLTESDRDKIVKEFKECLTQVLIATDVIARGFDQQRVNLVVNYNLPTKYETGEPDYEVYLHRVGRAGRFGRKGAVFNLLLDDGWDKEVMEKIEKYFEANVKEIKSWNSEEEYKSALKEAGLLDE",apparent kcat of LOS4-His,"LOS4 ATPase; LOS4-His (1 μM) alone, 0-2 mM ATP",0.267 s⁻¹
same,beacon fluorescence (LOS4 RNA helicase activity),[3],did not increase the fluorescence of the beacons
MBP-Gle1: maltose-binding protein (MBP)-fused full-length Arabidopsis Gle1 (protein) MGIVLEPPCPKSVDGISIDPEPNWNFESLVAEIASVEKKLNGFSMYPQPITNTTLRMGRRGGGFVMHVSEDEMESDEGEESDDEEEEEDHSQICTAGKRFACDELYLSDESDEEFDHEPEYMMNKLGLAESALYEVINDHQTEIKDDIRNQVSVVETEIMNEIETSLSAIARVEKYSETRKEVERKLDLQYQRKVAEALDTHLTAVQREHKIKSQIEERKIRSEEAQEEARRKERAHQEEKIRQEKARAEAQMLAKIRAEEEKKEVERKAAREVAEKEVADRKAAEQKLAEQKAVIESVTGSSATSNAQAGGNSIRAAESALILENHRLKKLEELETTNQSLKSRSNENFSSFEKHIGRVIRQISGTKDSVSGKINDIVKIFKDPRCPVSISIAAFAKKMVTTKEKPNPFACSYVIVYINSQFPQVMDILLAEFHKACIYTVPKHIVNSQSAWDSDAYERLDSIMRLYGALVQTDIRVGNATNVHGIEHGWAWLARFLNKIPANRATATALNSFLQTAGFGLHQRYKSQFLKVVNVVREHFLQKLRAKKDTSDLLVIIAEITAYLDDRMYLKEPEGRAMKTTSTLSSELTAELNQPNYNQNYQRNDYRNYY,induction of LOS4 ATPase activity,"LOS4 ATPase; LOS4-His 1 μM, ATP 2 mM, RNA 50 μg/ml and MBP-Gle1 (full length) 2 μM",threefold
same,beacon fluorescence (LOS4 RNA helicase activity),[3],significant increase in fluorescence in a concentration-dependent manner
same,pull-down by nickel resin-bound LOS4-His,LOS4-His,could pull down MBP-Gle1
